From US8455205B2, “Metalloproteinase 9 binding proteins” (Dyax Corp., priority 2008, dated 2013)
“Also recorded” adds a separate entry of the source. Each block holds one molecule with its values, some of them ahead of it.

What was measured:
MMP-9 [1] = target: T1, MMP-9 (Homo sapiens, UniProt P14780); test: Affinity ranking of Fabs by BIACORE Flexchip (SPR); assay type: binding
Text: Surface Plasmon Resonance (SPR). The interaction of binding protein and a target can be analyzed using SPR. SPR or Biomolecular Interaction Analysis (BIA) detects biospecific interactions in real time, without labeling any of the interactants. Changes in the mass at the binding surface (indicative of a binding event) of the BIA chip result in alterations of the refractive index of light near the surface (the optical phenomenon of surface plasmon resonance (SPR)). The changes in the refractivity generate a detectable signal, which are measured as an indication of real-time reactions between biological molecules. Methods for using SPR are described, for example, in U.S. Pat. No. 5,641,640; Raether, 1988, Surface Plasmons Springer Verlag; Sjolander and Urbaniczky, 1991, Anal. Chem. 63:2338-2345; Szabo et al., 1995, Curr. Opin. Struct. Biol. 5:699-705 and on-line resources provide by BIAcore International AB (Uppsala, Sweden). BIAcore Flexchip can be used to compare and rank interactions in real time, in terms of kinetics, affinity or specificity without the use of labels.
Information from SPR can be used to provide an accurate and quantitative measure of the equilibrium dissociation constant (Kd), and kinetic parameters, including Kon and Koff, for the binding of a binding protein to a target. Such data can be used to compare different biomolecules. For example, selected proteins from an expression library can be compared to identify proteins that have high affinity for the target or that have a slow Koff. This information can also be used to develop structure-activity relationships (SAR). For example, the kinetic and equilibrium binding parameters of matured versions of a parent protein can be compared to the parameters of the parent protein. Variant amino acids at given positions can be identified that correlate with particular binding parameters, e.g., high affinity and slow Koff. This information can be combined with structural modeling (e.g., using homology modeling, energy minimization, or structure determination by x-ray crystallography or NMR). […]
Target sequence in this assay (P14780 94-707): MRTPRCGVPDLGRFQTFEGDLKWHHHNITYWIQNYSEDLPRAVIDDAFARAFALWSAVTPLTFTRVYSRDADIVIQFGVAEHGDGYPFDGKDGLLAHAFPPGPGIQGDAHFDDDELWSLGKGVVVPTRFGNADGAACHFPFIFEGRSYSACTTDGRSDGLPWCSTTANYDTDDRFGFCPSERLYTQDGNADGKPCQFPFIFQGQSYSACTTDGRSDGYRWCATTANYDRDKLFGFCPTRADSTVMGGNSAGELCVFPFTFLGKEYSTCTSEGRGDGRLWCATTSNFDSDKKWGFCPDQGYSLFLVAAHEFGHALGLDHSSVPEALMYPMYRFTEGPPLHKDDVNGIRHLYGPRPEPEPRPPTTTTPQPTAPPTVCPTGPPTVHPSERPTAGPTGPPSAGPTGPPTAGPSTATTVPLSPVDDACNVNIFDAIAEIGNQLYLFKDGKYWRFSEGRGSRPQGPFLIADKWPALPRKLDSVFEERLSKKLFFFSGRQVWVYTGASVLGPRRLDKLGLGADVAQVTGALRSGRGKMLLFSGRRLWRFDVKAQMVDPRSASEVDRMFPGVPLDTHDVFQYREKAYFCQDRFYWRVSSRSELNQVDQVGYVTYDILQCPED

MMP-9 [2] = target: T1, MMP-9; test: Inhibition of human MMP-9 activity, fluorogenic peptide substrate (IC50 / residual activity at 1 μM antibody); assay type: biochemical; set-up: Human MMP-9 catalytic domain (BIOMOL, SE-244); purchased BIOMOL SE-244
Method: MMP-9 binding proteins can be characterized in assays that measure their modulatory activity toward MMP-9 or fragments thereof in vitro or in vivo. For example, MMP-9 can be combined with a substrate such as Mca-Pro-Leu-Ala-Cys(Mob)-Trp-Ala-Arg-Dap(Dnp)-NH2 (SEQ ID NO: 12) under assay conditions permitting cleavage by MMP-9. The assay is performed in the absence of the MMP-9 binding protein, and in the presence of increasing concentrations of the MMP-9 binding protein. The concentration of binding protein at which 50% of the MMP-9 activity (e.g., binding to the substrate) is inhibited is the IC50 value (Inhibitory Concentration 50%) or EC50 (Effective Concentration 50%) value for that binding protein.
(§1) After sequencing analysis, the phage display were converted into sFabs and then into IgG1s. Their ability to inhibit MMP-9 and other MMPs (1, 3, 7, 8, 9, 10, 12, 13, 14) was determined by usual means. Compounds were initially screened at 1 μM against MMP-9 and those compounds that inhibited MMP-9>80% were subjected to additional screens against purified recombinant human MMPs. For these additional screens, an IC50 value was determined.
The human MMP-1, -2, -3, -7, -8, -9, -10, -12, -13, and -14 were obtained from BIOMOL (Human MMP-9: SE-244, BIOMOL; Human MMP-14: SE-259, BIOMOL; Human MMP-1, -2, -8, -13: MMP MultiPack-1 from BIOMOL; Human MMP-3, -7, -10, -12: MMP MultiPack-2 from BIOMOL). […]
Target sequence in this assay (P14780 107-444 limits assumed): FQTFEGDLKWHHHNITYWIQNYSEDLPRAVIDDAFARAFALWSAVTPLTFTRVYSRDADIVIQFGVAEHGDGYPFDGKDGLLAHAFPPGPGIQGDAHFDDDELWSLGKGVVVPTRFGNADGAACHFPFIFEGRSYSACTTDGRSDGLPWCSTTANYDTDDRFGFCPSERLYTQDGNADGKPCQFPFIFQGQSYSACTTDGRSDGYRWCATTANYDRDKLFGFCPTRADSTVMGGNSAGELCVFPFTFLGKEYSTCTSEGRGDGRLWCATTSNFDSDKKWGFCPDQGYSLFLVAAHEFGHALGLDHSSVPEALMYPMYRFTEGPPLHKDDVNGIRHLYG

human MMP-12 = target: T2, human MMP-12 (Homo sapiens, UniProt P39900); test: MMP selectivity panel, residual enzyme activity; assay type: biochemical; settings: FIG. 5
T2 construct: purchased BIOMOL MMP MultiPack-2
T2 sequence (P39900 106-470): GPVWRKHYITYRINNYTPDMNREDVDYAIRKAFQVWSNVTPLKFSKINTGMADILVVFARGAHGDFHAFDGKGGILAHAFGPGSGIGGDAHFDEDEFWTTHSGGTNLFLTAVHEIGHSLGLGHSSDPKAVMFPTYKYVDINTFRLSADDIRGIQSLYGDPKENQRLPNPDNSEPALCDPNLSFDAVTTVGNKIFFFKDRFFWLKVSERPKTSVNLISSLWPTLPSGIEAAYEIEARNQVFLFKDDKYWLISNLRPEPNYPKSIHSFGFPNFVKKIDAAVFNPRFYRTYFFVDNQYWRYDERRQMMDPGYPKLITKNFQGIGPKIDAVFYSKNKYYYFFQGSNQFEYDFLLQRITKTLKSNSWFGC
Method: as §1
(§2) The human MMP-1, -2, -3, -7, -8, -9, -10, -12, -13, and -14 were obtained from BIOMOL (Human MMP-9: SE-244, BIOMOL; Human MMP-14: SE-259, BIOMOL; Human MMP-1, -2, -8, -13: MMP MultiPack-1 from BIOMOL; Human MMP-3, -7, -10, -12: MMP MultiPack-2 from BIOMOL). The mouse MMP-2 and -9 were from R&D (Mouse MMP-9: 909-MM, R&D Mouse MMP-2: 924-MP, R&D). The substrate was Mca-Pro-Lys-Pro-Leu-Ala-Leu-Dap(Dnp)-Ala-Arg-NH2 (SEQ ID NO: 951)(M-2225, Bachem) for human MMP-3, and Mca-Lys-Pro-Leu-Gly-Leu-Dap(Dnp)-Ala-Arg-NH2 (SEQ ID NO: 952)(M-2350, Bachem) for all the other enzymes. The substrate concentration in the assay was 10 μM.

human MMP-14 = target: T3, human MMP-14 (Homo sapiens, UniProt P50281); test: MMP selectivity panel, residual enzyme activity; assay type: biochemical; settings: FIG. 5
T3 construct: purchased BIOMOL SE-259
Method: as §1, §2

human MMP-3 = target: T4, human MMP-3 (Homo sapiens, UniProt P08254); test: MMP selectivity panel, residual enzyme activity; assay type: biochemical; settings: FIG. 5
T4 construct: purchased BIOMOL MMP MultiPack-2
T4 sequence (P08254 100-477): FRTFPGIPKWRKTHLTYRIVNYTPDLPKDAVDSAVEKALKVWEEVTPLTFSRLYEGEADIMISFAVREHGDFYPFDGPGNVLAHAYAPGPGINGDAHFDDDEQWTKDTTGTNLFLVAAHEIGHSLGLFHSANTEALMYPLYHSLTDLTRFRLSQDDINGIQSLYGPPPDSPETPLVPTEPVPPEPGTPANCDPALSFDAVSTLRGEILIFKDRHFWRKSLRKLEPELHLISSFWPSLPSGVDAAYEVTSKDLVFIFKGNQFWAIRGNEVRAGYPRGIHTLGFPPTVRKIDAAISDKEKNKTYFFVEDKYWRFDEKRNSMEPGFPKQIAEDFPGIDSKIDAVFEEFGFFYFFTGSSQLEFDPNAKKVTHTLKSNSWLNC
Method: as §1, §2

human MMP-8 = target: T5, human MMP-8 (Homo sapiens, UniProt P22894); test: MMP selectivity panel, residual enzyme activity; assay type: biochemical; settings: FIG. 5
T5 construct: purchased BIOMOL MMP MultiPack-1
T5 sequence (P22894 101-467): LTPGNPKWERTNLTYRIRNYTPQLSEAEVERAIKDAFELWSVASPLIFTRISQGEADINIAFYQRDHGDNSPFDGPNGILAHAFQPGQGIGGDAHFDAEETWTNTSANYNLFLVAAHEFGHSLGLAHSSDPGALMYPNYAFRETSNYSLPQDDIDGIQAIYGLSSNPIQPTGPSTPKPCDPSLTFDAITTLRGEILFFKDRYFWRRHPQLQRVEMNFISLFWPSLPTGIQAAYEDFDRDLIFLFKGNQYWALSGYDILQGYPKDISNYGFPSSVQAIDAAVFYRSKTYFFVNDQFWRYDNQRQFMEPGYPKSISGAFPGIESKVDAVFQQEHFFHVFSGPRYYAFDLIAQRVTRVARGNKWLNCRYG
Method: as §1, §2

human MMP-2 = target: T6, human MMP-2 (Homo sapiens, UniProt P08253); test: MMP selectivity panel, residual enzyme activity; assay type: biochemical; settings: FIG. 5
T6 construct: purchased BIOMOL MMP MultiPack-1
T6 sequence (P08253 110-660): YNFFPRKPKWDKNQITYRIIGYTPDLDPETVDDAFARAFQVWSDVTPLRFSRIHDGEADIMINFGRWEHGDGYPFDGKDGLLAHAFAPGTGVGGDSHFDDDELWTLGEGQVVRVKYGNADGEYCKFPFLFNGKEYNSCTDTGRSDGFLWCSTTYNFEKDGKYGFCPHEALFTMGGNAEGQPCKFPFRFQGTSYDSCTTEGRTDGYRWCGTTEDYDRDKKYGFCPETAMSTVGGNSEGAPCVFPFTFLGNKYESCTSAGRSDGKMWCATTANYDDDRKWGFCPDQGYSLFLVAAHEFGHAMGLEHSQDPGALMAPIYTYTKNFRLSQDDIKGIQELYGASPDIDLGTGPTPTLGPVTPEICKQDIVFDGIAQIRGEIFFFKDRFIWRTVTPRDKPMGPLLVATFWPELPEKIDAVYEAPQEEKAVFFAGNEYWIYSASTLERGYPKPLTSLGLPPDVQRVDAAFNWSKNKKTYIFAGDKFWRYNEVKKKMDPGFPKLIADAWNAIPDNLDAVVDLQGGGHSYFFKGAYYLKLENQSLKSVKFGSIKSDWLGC
Text: as §2

mouse MMP-9 = target: T7, mouse MMP-9 (Mus musculus, UniProt P41245); test: Inhibition of mouse MMP-9 activity, fluorogenic substrate; assay type: biochemical
T7 construct: purchased R&D 909-MM
T7 sequence (P41245 108-730): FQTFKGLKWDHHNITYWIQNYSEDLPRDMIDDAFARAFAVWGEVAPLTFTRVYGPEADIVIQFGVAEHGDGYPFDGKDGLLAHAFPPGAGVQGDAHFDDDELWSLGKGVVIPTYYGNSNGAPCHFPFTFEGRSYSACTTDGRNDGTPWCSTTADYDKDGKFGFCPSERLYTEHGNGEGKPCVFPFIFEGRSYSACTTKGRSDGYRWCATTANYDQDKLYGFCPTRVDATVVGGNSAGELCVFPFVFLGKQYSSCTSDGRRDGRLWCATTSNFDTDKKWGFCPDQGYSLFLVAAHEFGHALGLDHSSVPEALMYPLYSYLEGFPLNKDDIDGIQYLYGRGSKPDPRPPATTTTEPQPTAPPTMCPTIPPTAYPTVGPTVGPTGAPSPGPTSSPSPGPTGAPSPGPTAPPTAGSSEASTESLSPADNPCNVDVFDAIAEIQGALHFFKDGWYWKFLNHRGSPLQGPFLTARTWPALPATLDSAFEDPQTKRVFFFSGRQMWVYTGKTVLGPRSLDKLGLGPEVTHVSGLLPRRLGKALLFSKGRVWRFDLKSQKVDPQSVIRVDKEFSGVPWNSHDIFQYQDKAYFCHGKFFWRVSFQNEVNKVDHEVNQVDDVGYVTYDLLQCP
Text: as §2

Difference from reference (MMP-9 [1]; Flexchip spot signal, Fabs from the R0017 plate): 845.8099
ka (MMP-9 [1]; Flexchip, Fabs): No Binding *
kd (MMP-9 [1]; Flexchip, Fabs): No Binding *
Molecule: TIMP-1: endogenous MMP inhibitor, control spot on Flexchip

Selectivity for MMP-9 versus other MMPs tested (MMP-9 [2]; compared to the other human and murine MMPs tested): selective inhibitor of MMP-9
Inhibition of human MMP-12 (in words) (human MMP-12): not
Inhibition of human MMP-14 (in words) (human MMP-14): not
Inhibition of human MMP-3 (in words) (human MMP-3): not
Inhibition of human MMP-8 (in words) (human MMP-8): not
Inhibition of human MMP-2 (in words) (human MMP-2): not
B1: 539A-M0240-B03: Parental isolate (sFab; IgG); h/mMMP-9 antibody inhibitor (antibody, V domains shown)
VL: QYELTQPRSVSGSPGQSVTISCTGTSSDVGGYNYVSWYQQHPGKAPKLMIYDVSKRPSGVPDRFSGSKSGNTASLTISGLQAEDEADYYCCSYAGSYTLVFGGGTKLTVL
VH: EVQLLESGGGLVQPGGSLRLSCAASGFTFSTYQMVWVRQAPGKGLEWVSVIYPSGGPTVYADSVKGRFTISRDNSKNTLYLQMNSLRAEDTAVYYCARGEDYYDSSGPGAFDIWGQGTMVTVSS
Inhibition of human MMP-9 activity (in words) (MMP-9 [2]; FIG. 5 / Example 12): inhibits; also recorded: decrease or inhibit
Inhibition of mouse MMP-9 activity (in words) (mouse MMP-9): inhibits; also recorded: decrease or inhibit
